Assay results reported in CN116262788A (TAIZE HUIKANG BIOMEDICAL CO LTD; BEIJING MIANYI FANGZHOU …, dated 2023).

What was measured:
[1] = molecular target: 人CD27 (稳定表达人CD27的细胞系 HEK::CD27 细胞) (human) (UniProt P26842); experiment: flow cytometry on cells expressing human CD27
[2] = molecular target: T1, 人CD27蛋白 (Cat: 10039-H03H, Sino Biological Inc.) (human, UniProt P26842 21-192); experiment: SPR (Reichert4), human CD27 protein on chip, antibody as analyte, curve 1.25e-8
T1 construct: Bought protein coated on the SPR chip
T1 sequence (looked up): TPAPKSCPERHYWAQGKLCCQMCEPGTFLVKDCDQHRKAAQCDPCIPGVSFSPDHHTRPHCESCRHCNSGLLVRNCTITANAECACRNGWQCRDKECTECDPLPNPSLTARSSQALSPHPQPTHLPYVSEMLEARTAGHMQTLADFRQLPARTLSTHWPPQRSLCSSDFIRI

[3] = molecular target: T1, 人CD27蛋白 (Cat: 10039-H03H, Sino …); experiment: SPR (Reichert4), human CD27 protein on chip, antibody as analyte, curve 2.50e-8
[4] = molecular target: T1, 人CD27蛋白 (Cat: 10039-H03H, Sino …); experiment: SPR (Reichert4), human CD27 protein on chip, antibody as analyte, curve 5.00e-8
[5] = molecular target: T1, 人CD27蛋白 (Cat: 10039-H03H, Sino …); experiment: SPR (Reichert4), human CD27 protein on chip, antibody as analyte, curve printed 625e-9
[6] = molecular target: T1, 人CD27蛋白 (Cat: 10039-H03H, Sino …); experiment: SPR (Reichert4), human CD27 protein on chip, antibody as analyte, curve 6.25e-9
[7] = molecular target: T2, 人CD27 (稳定表达人CD27的细胞系 HEK::CD27 细胞) (human, UniProt P26842 20-260); experiment: flow cytometry on HEK::CD27 cells, 10 ng and 100 ng antibody
T2 construct: whole, on cells; also called hCD27; 表达hCD27的细胞
T2 sequence (looked up): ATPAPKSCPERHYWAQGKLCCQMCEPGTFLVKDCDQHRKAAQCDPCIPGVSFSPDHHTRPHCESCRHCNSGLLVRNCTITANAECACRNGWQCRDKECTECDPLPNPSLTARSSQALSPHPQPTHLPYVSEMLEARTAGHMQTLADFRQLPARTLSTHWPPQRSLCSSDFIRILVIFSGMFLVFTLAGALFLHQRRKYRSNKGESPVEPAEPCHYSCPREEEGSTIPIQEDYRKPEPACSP

B1: 鼠抗人CD27单克隆抗体6D8 (antibody, V domains shown)
VH: QIQLVQSGPELKKPGETVKISCKASGYTFTNYGMNWVKQAPGKGLKWMGWINTNTGEPTYADDFKGRFAFSLETSATTAYLQINNLKNEDTATYFCAREGDGFDSWGQGTTLTVSS
VL: QFVLTQSPAIMSASPGEKVTMTCSATSSVNYMHWYQQKSGTSPKRWIYDTSRLASGVPARFSGSGSGTSYSLTISSMEAEDAATYYCQQWNTNPWTFGGGTKLEIK
notes: it is not clear whether they are whole chains or variable regions only; also called 6D8抗体
结合率 [1]: > 85%
Kd [2]: 0.514 nM
koff [2]: 9.69e-05 s⁻¹
kon [2]: 188000 M⁻¹ s⁻¹
Kd [3]: 0.514 nM
koff [3]: 9.69e-05 s⁻¹
kon [3]: 188000 M⁻¹ s⁻¹
Kd [4]: 0.514 nM
koff [4]: 9.69e-05 s⁻¹
kon [4]: 188000 M⁻¹ s⁻¹
Kd [5]: 0.514 nM
koff [5]: 9.69e-05 s⁻¹
kon [5]: 188000 M⁻¹ s⁻¹

B2: Varlilumab (antibody, V domains shown)
VH: QVQLVESGGGVVQPGRSLRLSCAASGFTFSSYDMHWVRQAPGKGLEWVAVIWYDGSNKYYADSVKGRFTISRDNSKNTLYLQMNSLRAEDTAVYYCARGSGNWGFFDYWGQGTLVTVSS
VL: DIQMTQSPSSLSASVGDRVTITCRASQGISRWLAWYQQKPEKAPKSLIYAASSLQSGVPSRFSGSGSGTDFTLTISSLQPEDFATYYCQQYNTYPRTFGQGTKVEIKR
Kd [2]: 0.00185 nM
koff [2]: 2.14e-07 s⁻¹
kon [2]: 116000 M⁻¹ s⁻¹
Kd [3]: 0.00185 nM
koff [3]: 2.14e-07 s⁻¹
kon [3]: 116000 M⁻¹ s⁻¹
Kd [4]: 0.00185 nM
koff [4]: 2.14e-07 s⁻¹
kon [4]: 116000 M⁻¹ s⁻¹
Kd [6]: 0.00185 nM
koff [6]: 2.14e-07 s⁻¹
kon [6]: 116000 M⁻¹ s⁻¹

B3: 6D8-G98A (人鼠嵌合抗体) (antibody, V domains shown)
VH: QIQLVQSGPELKKPGETVKISCKASGYTFTNYGMNWVKQAPGKGLKWMGWINTNTGEPTYADDFKGRFAFSLETSATTAYLQINNLKNEDTATYFCAREGDAFDSWGQGTTLTVSS
VL: QFVLTQSPAIMSASPGEKVTMTCSATSSVNYMHWYQQKSGTSPKRWIYDTSRLASGVPARFSGSGSGTSYSLTISSMEAEDAATYYCQQWNTNPWTFGGGTKLEIK
binding result [7]: binds

B4: Hu6D8-5 (antibody, human IgG4, V domains shown)
VH: EVQLVQSGAEVKKPGASVKVSCKASGYTFTNYGMNWVRQAPGQGLKWMGWINTNTGEPTYADDFKGRVTMTLDTSISTAYMELSRLRSDDTAVYYCAREGDGFDSWGQGTTVTVSS
VL: QIVLTQSPDFQSVTPKEKVTITCSATSSVNYMHWYQQKPDQSPKRWIYDTSRLASGVPSRFSGSGSGTDYTLTINSLEAEDAATYYCQQWNTNPWTFGGGTKVEIK
binding result [7]: binds

B5: Hu6D8-1 (antibody, human IgG4, V domains shown)
VH: EVQLVQSGAEVKKPGASVKVSCKASGYTFTNYGMNWVRQAPGQGLKWMGWINTNTGEPTYADDFKGRVTMTLDTSISTAYMELSRLRSDDTAVYYCAREGDGFDSWGQGTTVTVSS
VL: EIVLTQSPDFQSVTPKEKVTITCSATSSVNYMHWYQQKPDQSPKRLIYDTSRLASGVPSRFSGSGSGTDYTLTINSLEAEDAATYYCQQWNTNPWTFGGGTKVEIK
binding result [7]: binds

B6: Hu6D8-2 (antibody, human IgG4, V domains shown)
VH: EVQLVQSGAEVKKPGASVKVSCKASGYTFTNYGMNWVRQAPGQGLKWMGWINTNTGEPTYADDFKGRVTMTLDTSISTAYMELSRLRSDDTAVYYCAREGDGFDSWGQGTTVTVSS
VL: EIVLTQSPDFQSVTPKEKVTITCSATSSVNYMHWYQQKPDQSPKRWIYDTSRLASGVPSRFSGSGSGTDYTLTINSLEAEDAATYYCQQWNTNPWTFGGGTKVEIK
binding result [7]: binds

B7: Hu6D8-3 (antibody, human IgG4, V domains shown)
VH: EVQLVQSGAEVKKPGASVKVSCKASGYTFTNYGMNWVRQAPGQGLKWMGWINTNTGEPTYADDFKGRVTMTLDTSISTAYMELSRLRSDDTAVYYCAREGDGFDSWGQGTTVTVSS
VL: QIVLTQSPDFQSVTPKEKVTITCSATSSVNYMHWYQQKPDQSPKRLIYDTSRLASGVPSRFSGSGSGTDYTLTINSLEAEDAATYYCQQWNTNPWTFGGGTKVEIK
binding result [7]: binds

B8: Hu6D8-4 (antibody, human IgG4, V domains shown)
VH: EVQLVQSGAEVKKPGASVKVSCKASGYTFTNYGMNWVRQAPGQGLKWMGWINTNTGEPTYADDFKGRVTMTLDTSISTAYMELSRLRSDDTAVYYCAREGDGFDSWGQGTTVTVSS
VL: QFVLTQSPDFQSVTPKEKVTITCSATSSVNYMHWYQQKPDQSPKRLIYDTSRLASGVPSRFSGSGSGTDYTLTINSLEAEDAATYYCQQWNTNPWTFGGGTKVEIK
binding result [7]: binds

B9: Hu6D8-6 (antibody, human IgG4, V domains shown)
VH: EVQLVQSGAEVKKPGASVKVSCKASGYTFTNYGMNWVRQAPGQGLKWMGWINTNTGEPTYADDFKGRVTMTLDTSISTAYMELSRLRSDDTAVYYCAREGDGFDSWGQGTTVTVSS
VL: QFVLTQSPDFQSVTPKEKVTITCSATSSVNYMHWYQQKPDQSPKRWIYDTSRLASGVPSRFSGSGSGTDYTLTINSLEAEDAATYYCQQWNTNPWTFGGGTKVEIK
binding result [7]: binds

B10: Hu6D8-12 (antibody, human IgG4, V domains shown)
VH: EVQLVQSGAEVKKPGASVKVSCKASGYTFTNYGMNWVRQAPGQGLKWMGWINTNTGEPTYADDFKGRFTFTLDTSISTAYMELSRLRSDDTAVYYCAREGDGFDSWGQGTTVTVSS
VL: QFVLTQSPDFQSVTPKEKVTITCSATSSVNYMHWYQQKPDQSPKRWIYDTSRLASGVPSRFSGSGSGTDYTLTINSLEAEDAATYYCQQWNTNPWTFGGGTKVEIK
binding result [7]: binds
